# Experimental data published in article PMC5500832 (Chemical Science, 2015).
# Assay type: physicochemical
# Details: all pH values (3, 5, 7 and 9); 20 °C; over eight days; HPLC-MSMS; detection limit = 0.05%
sequence,measurement,value
FFRKSIINFEKL [compound 3],"Formation of α-GalCer (background hydrolysis, linker collapse)",No formation of α-GalCer was detected
